Test results: patent US20040018199A1

Legend:
Cadherin 11 (human) = Cadherin 11 (human) (UniProt P55287); experiment: yeast two-hybrid (PathCalling)
[1] = target: Prey 2832217 protein (C11orf15 protein) (human) (UniProt Q9NQ34); experiment: yeast two-hybrid (PathCalling)
Lumican (human) = Lumican (human) (UniProt P51884); experiment: yeast two-hybrid (PathCalling); forty-eight independent experiments
Sequence of UniProt P51884 (P51884 217-338 limits assumed, form in doubt): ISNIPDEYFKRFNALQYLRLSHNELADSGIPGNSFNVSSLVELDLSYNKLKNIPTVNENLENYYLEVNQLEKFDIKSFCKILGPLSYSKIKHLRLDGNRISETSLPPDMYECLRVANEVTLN

Sequence of UniProt Q9NQ34 (Q9NQ34 35-167 limits assumed, form in doubt): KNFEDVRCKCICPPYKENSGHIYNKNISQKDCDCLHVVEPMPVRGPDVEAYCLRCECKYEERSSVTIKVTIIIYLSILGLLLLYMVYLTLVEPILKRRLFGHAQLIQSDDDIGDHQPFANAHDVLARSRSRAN
Sequence of UniProt P55287 (P55287 154-796 limits assumed, form in doubt): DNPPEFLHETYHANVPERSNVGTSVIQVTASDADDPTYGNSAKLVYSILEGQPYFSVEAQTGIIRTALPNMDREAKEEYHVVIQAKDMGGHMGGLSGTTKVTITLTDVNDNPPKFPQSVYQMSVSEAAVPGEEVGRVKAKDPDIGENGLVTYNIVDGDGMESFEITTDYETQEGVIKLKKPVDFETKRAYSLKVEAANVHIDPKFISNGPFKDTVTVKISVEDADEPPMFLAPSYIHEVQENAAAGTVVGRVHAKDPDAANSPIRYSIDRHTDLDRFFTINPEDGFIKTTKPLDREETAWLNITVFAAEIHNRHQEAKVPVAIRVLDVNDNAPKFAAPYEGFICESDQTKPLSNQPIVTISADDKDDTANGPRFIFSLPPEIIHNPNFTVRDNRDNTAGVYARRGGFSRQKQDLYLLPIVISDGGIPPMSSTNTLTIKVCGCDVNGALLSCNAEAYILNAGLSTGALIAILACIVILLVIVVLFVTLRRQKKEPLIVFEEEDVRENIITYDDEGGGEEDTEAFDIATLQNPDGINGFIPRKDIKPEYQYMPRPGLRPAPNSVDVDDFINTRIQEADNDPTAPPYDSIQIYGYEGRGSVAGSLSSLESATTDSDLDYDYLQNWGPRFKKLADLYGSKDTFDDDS

interaction rating score (Cadherin 11 (human)): 2.7
interaction rating score [1]: 9.6
interaction rating score (Lumican (human)): 9.99
Substance: CG54020 (EPHA8), ephrin type-A receptor 8 (from UniProt P29322 28-207)
